Here are results for 10 molecules from patent US20260209362A1 (VIB VZW, published 2026).

To fix the notation:
T1: biotinylated recombinant mouse IL-12Rβ2 (produced in-house) (mouse, UniProt P97378 24-637, random biotinylated)
T1 construct: also called mIL-12RB2; mIL12RB2
T1 sequence: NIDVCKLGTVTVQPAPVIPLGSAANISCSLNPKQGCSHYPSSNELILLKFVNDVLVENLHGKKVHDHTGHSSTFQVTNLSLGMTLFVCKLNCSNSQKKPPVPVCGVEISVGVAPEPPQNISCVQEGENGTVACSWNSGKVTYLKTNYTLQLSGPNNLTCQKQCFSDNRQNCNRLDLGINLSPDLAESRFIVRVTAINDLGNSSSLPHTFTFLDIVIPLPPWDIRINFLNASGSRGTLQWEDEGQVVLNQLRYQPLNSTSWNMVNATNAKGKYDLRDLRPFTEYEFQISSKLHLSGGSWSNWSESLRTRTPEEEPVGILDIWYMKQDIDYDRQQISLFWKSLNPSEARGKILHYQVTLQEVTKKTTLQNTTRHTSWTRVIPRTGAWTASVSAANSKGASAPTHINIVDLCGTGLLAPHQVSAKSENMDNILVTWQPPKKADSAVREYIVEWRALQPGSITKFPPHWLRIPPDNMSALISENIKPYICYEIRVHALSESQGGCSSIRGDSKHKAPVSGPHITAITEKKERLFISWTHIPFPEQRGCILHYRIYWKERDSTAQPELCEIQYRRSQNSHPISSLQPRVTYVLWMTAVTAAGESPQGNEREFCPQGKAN

T2: biotinylated recombinant human IL-12Rβ2 (human, UniProt Q99665 24-622, random biotinylated)
T2 construct: Recombinant protein produced in-house, biotinylated; also called hIL-12RB2; human IL-12RB2
T2 sequence: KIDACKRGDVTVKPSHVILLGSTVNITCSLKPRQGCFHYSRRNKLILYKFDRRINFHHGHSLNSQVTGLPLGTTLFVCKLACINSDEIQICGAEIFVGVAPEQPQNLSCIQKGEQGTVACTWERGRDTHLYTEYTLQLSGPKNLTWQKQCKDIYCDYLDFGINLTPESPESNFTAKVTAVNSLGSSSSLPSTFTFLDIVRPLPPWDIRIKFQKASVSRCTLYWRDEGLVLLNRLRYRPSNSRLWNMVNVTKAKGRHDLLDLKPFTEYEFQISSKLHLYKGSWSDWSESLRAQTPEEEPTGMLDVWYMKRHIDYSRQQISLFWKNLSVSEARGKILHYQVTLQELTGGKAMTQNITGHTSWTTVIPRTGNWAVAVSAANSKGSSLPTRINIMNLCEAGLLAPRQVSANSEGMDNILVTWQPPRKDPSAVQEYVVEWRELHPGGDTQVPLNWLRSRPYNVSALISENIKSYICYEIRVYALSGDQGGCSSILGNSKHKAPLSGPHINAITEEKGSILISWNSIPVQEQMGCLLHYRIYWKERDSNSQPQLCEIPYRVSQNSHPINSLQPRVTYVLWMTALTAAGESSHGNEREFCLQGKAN

T3: biotinylated recombinant mouse IL-12Rβ2 (mouse, UniProt P97378 24-637, random biotinylated)
T3 construct: Recombinant protein produced in-house, biotinylated; also called mIL-12RB2; mouse IL-12RB2
T3 sequence: T1 sequence

T4: biotinylated recombinant human IL-12Rβ2 (produced in-house) (human, UniProt Q99665 24-622, random biotinylated)
T4 construct: also called hIL-12RB2; hIL12RB2
T4 sequence: T2 sequence

T5: human IL-12Rβ2 expressed on cells (human, UniProt Q99665 24-862)
T5 construct: HEK293T cells transiently transfected with a human IL-12Rβ2 plasmid (Genscript OHu21785); also called hIL-12RB2
T5 sequence: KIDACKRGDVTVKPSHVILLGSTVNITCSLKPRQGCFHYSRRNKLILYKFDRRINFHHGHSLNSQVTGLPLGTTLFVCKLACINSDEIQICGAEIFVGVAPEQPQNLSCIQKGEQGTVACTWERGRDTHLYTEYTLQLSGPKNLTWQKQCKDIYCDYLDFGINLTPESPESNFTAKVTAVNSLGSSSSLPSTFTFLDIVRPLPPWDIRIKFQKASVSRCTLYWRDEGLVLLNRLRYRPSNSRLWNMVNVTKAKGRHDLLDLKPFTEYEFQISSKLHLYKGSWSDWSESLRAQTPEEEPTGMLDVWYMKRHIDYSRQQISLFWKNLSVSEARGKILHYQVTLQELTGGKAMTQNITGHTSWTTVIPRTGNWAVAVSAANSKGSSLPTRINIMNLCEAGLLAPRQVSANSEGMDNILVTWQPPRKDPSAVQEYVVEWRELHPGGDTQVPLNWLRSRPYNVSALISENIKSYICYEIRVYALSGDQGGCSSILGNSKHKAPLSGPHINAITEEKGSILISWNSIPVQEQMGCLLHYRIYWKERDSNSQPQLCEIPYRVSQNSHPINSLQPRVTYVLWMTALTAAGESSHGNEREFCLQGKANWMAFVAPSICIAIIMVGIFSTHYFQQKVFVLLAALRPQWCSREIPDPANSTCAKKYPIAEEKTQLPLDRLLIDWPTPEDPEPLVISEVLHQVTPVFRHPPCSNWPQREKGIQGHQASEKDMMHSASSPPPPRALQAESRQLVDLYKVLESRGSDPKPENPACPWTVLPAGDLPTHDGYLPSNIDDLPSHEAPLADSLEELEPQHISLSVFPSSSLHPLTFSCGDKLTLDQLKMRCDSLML

B1: anti-IL-12Rβ2 VHH clone 3CAHS41 (VHH, not shown: small tags and cut ends)
VHH: QVQLQESGGGLVQAGDSLRLSCAASGRTFDTYIVGWFRQAPGKEREFVSALSWSDDTTIRDDSLRGRFTISRDNAKNTVYLLMNSLKPEDTAVYYCAAKAKPPAATWSSYRNREWYDYWGQGTQVTVSS
notes: tested as periplasmic extract
B2: anti-IL-12Rβ2 VHH clone 2CRH82 (VHH, not shown: small tags and cut ends)
VHH: QVQLQESGGGLVQAGGSLRLSCAASARTESMYAMAWFRQAPGKEREIVAGIIQSGGTTYISDYMKGRFSIDRGNAENTVYLQMDSLKPEDTAVYSCAAKVSSGTPSDIQISQSRWYDHWGQGTQVTVSS
notes: tested as periplasmic extract
B3: anti-IL-12Rβ2 VHH clone 21061 (VHH, not shown: small tags and cut ends)
VHH: QVQLQESGGGLVQPGGSLRLSCAASRRTFSKHAMAWFRQAPGKEREFVAVVRWSGIITYYADSVKGRFTISRDDAKNTVYLQMDSLKPEDTAVYYCAAGDYRGNGYYVPGMYDYWGQGTQVTVSS
notes: tested as periplasmic extract; also called 3CRHM85
B4: anti-IL-12Rβ2 VHH clone 21062 (VHH, not shown: small tags and cut ends)
VHH: QVQLQESGGGLVQPGGSLRLSCAASGISSSRLHVGWFRQSPGKEREFVAAISLSGGTQAYTDSVKGRFTISGDNVKNTAYLQMNSLRPEDTAVYYCAARERFIWTWSDLTYDYWGQGTQVTVSS
notes: tested as periplasmic extract; also called 3CRHM99
B5: anti-IL-12Rβ2 VHH clone 21055 (VHH, not shown: small tags and cut ends)
VHH: QVQLQESGGGLVQAGGSLRLSCAASGRTFSKSTMGWFRQTPGKEREFVAAITWTDTEVYANSVKDRFTISRDNAKNTFYLQMHSLKLEDTAVYYCAGDRYGSSRDSVFSSPTNYPYWGQGTQVTVSS
notes: tested as periplasmic extract; also called 3CRHM20
B6: anti-IL-12Rβ2 VHH clone 21058 (VHH, not shown: small tags and cut ends)
VHH: QVQLQESGGGLVQAGGSLRLSCAASGRTFSNYAMAWFRQAPGTEREFVAGLSGSGGDTAFYDNSVMGRFTISRDSAKNTMWLQINNLKPEDTAVYYCAAATHVVVSYGLVRRRGTYDYWGQGTQVTVSS
notes: tested as periplasmic extract; also called 3CRHM49
B7: anti-IL-12Rβ2 VHH clone 21057 (VHH, not shown: small tags and cut ends)
VHH: B6 VHH with S106N
notes: tested as periplasmic extract; also called 3CRHM35
B8: anti-IL-12Rβ2 VHH clone 21053 (VHH, not shown: small tags and cut ends)
VHH: B6 VHH with A59E, N63D, M66K, T70A, M80V, I84M, N86S, S106H
notes: tested as periplasmic extract; also called 3CRHM14
B9: anti-IL-12Rβ2 VHH clone 21054 (VHH, not shown: small tags and cut ends)
VHH: B6 VHH with A14D, R112K
notes: tested as periplasmic extract; also called 3CRHM18
B10: anti-IL-12Rβ2 VHH clone 21064 (VHH, not shown: small tags and cut ends)
VHH: B6 VHH with A14P
notes: tested as periplasmic extract; also called 3CRHM200

Substitutions are numbered along the chain they refer to.

The target of one experiment is T1, biotinylated recombinant mouse IL-12Rβ2 …. Kind of experiment: ELISA, P.E. VHH on biotinylated mIL-12RB2, signal ratio to control well. In general terms: ELISA stands for enzyme-linked immunosorbent assay.
Regarding B1, the “ELISA mIL12RB2/control” value came to 1.35.
The same measure, in the same setting: as for B2, the figure is 1.77.

The target in the next experiment is T2, biotinylated recombinant human IL-12Rβ2. Kind of experiment: ELISA, periplasmic extract on biotinylated hIL-12Rβ2, signal over control wells.
For B3, the “ELISA binding hIL-12RB2/control” value turned out to be 3.52 ratio.
The same measure, in the same setting: as for B4, the figure is 4.24 ratio; as for B5, 8.23 ratio; as for B6, 3.2 ratio.
Same read-out and setting: as for B7, the figure is 4.84 ratio; as for B8, 3.11 ratio.
On the same count and under the same terms, as for B9, the figure is 3.61 ratio; as for B10, 3.58 ratio.

A further experiment has as its target T3, biotinylated recombinant mouse IL-12Rβ2. Put plainly: ELISA, periplasmic extract on biotinylated mIL-12Rβ2, signal over control wells.
For B3, the “ELISA binding mIL-12RB2/control” value came to 8 ratio.
The same measure, in the same setting: as for B4, the figure is 5.24 ratio.
The same measure, in the same setting: as for B5, the figure is 20.2 ratio.
On the same count and under the same terms, as for B6, the figure is 41.2 ratio; as for B7, 35.5 ratio.
Consider B8, for which the “ELISA binding mIL-12RB2/control” value stood at 25.1 ratio.
Same read-out and setting: as for B9, the figure is 45 ratio; as for B10, 5.37 ratio.

A further experiment has the same target. Kind of experiment: BLI (Octet), periplasmic extract on biotinylated mIL-12Rβ2 on streptavidin tips, 1:1 model. On the technique in general: In BLI a coated tip is dipped into the sample, and binding shifts an interference pattern.
As for B3, the off-rate constant (koff) is 0.00474 s⁻¹.
The same measure, in the same setting: as for B4, the figure is 0.00671 s⁻¹; as for B5, 0.0059 s⁻¹; as for B6, 0.00583 s⁻¹.
Still for that read-out and setting: in the case of B7 it was 0.00535 s⁻¹; in that of B8, 0.00483 s⁻¹.
Consider B9, for which the koff came out at 0.00618 s⁻¹.
With B10, the koff is 0.00546 s⁻¹.

A further experiment has the same target. Kind of experiment: BLI (Octet), periplasmic extract on biotinylated mIL-12Rβ2 on streptavidin tips.
In the case of B3, the Response came out at 0.816.
The same measure, in the same setting: as for B4, the figure is 0.812; as for B5, 0.586.
The same measure, in the same setting: in the case of B6 it was 1.15; in that of B7, 1.04.
Same read-out and setting: as for B8, the figure is 0.957; as for B9, 0.699; as for B10, 1.01.

In another experiment the target is T4, biotinylated recombinant human IL-12Rβ2 …. Kind of experiment: BLI (Octet), P.E. VHH on immobilised biotinylated hIL-12RB2, 1:1 model.
Regarding B1, the dissociation rate constant (koff) turned out to be 0.00441 s⁻¹.
Still for that read-out and setting: as for B2, the figure is 0.00274 s⁻¹.

Another experiment concerns the target T5, human IL-12Rβ2 expressed on cells. Kind of experiment: flow cytometry, P.E. VHH on HEK293T cells transiently expressing hIL-12RB2.
In turn, B1 gave a dMFI of 971.
In the case of B2, the dMFI was found to be 744.

A further experiment deals with T1, biotinylated recombinant mouse IL-12Rβ2 …. Put plainly: ELISA, P.E. VHH on biotinylated mIL-12RB2.
In the case of B1, the binding result is “no binding”.
As for B2, the binding result is recorded as “no binding”.

A further experiment concerns the target T2, biotinylated recombinant human IL-12Rβ2. Kind of experiment: BLI (Octet), periplasmic extract on biotinylated hIL-12Rβ2 on streptavidin tips, 1:1 model.
As to B3, the koff came out at 0.00343 s⁻¹.
B4: the off-rate constant (koff) stood at 0.00634 s⁻¹.
Still for that read-out and setting: in the case of B5 it was 0.00486 s⁻¹; in that of B6, 0.00619 s⁻¹; in that of B7, 0.00576 s⁻¹.
On to B8, for which the koff was found to be 0.00532 s⁻¹.
Same read-out and setting: as for B9, the figure is 0.00548 s⁻¹; as for B10, 0.00571 s⁻¹.

The target is the same in another experiment. Kind of experiment: BLI (Octet), periplasmic extract on biotinylated hIL-12Rβ2 on streptavidin tips.
For B3, the Response was found to be 1.32.
On to B4, for which the Response was found to be 1.45.
The same measure, in the same setting: as for B5, the figure is 1.18.
Turning to B6, the Response is 1.54.
Consider B7, for which the Response was 1.36.
On the same count and under the same terms, as for B8, the figure is 1.19; as for B9, 1.14; as for B10, 1.38.

Another experiment concerns the target T4, biotinylated recombinant human IL-12Rβ2 …. Kind of experiment: ELISA, P.E. VHH on biotinylated hIL-12RB2, signal ratio to control well.
As for B1, the “ELISA hIL12RB2/control” value was found to be 8.77.
The same measure, in the same setting: as for B2, the figure is 16.1.

The target is the same in a further experiment. Kind of experiment: BLI (Octet), P.E. VHH on immobilised biotinylated hIL-12RB2.
As for B1, the Response came to 0.609.
For the molecule B2, the Response was 0.426.

What is called koff is the rate constant with which the complex falls apart.
